# Source: patent US20240059799A1 (Pfizer, published 2024)
# Key:
# [1] = molecular target: T1, recombinant human TL1A (human, UniProt O95150 71-251); assay: cell-based or functional assay
# T1 chain: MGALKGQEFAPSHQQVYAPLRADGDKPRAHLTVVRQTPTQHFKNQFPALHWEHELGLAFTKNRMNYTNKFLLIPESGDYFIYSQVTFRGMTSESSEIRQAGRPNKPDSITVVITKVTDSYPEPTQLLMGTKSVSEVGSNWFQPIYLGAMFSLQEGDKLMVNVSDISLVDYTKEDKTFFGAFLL
# [2] = molecular target: T1, recombinant human TL1A; assay: competition ELISA, coated TL1A, competitor bio-TL1A-0002
# Procedure: (§1) For this competition ELISA assay procedure, 96-well high binding plates (Corning, product number 3590) were coated with 1 μg/mL recombinant TL1A in 100 μL/well in Phospate Buffered Saline (PBS) overnight at 4° C. Plates were then blocked in PBS+0.02% casein solution and washed with PBS+0.05% Tween-20 following standard ELISA protocol. […] Plates were washed with PBS+0.05% Tween-20 following standard ELISA protocol, and Streptavidin-HRP (Southern Biotech, product number 7100-05) diluted to 1:10,000 in assay buffer was added to plates and incubated for 25-30 minutes at room temperature. Next, the plates were washed with PBS+0.05% Tween-20 following standard ELISA protocol, and then TMB substrate (BioFX Laboratories, catalog number TMBW-0100-01) was added to plates. Reactions were stopped after approximately 5 minutes by adding 0.18 M ortho-phosphoric acid to each well and absorbance was read at 450 nm.
# [3] = molecular target: T2, recombinant human TL1A (human, UniProt O95150 71-251); assay: competition ELISA vs bio-TL1A-0002
# T2 construct: homotrimer; biotinylated for SPR capture; the ELISA paragraphs say only 'recombinant TL1A'; also called TNFSF15
# T2 chain: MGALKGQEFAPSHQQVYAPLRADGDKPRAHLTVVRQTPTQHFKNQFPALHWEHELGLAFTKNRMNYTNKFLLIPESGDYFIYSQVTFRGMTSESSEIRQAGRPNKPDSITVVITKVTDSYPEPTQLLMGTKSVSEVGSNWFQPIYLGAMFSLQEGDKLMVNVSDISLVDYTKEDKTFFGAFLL
# Procedure: as §1
Binder,Whole blood IFNγ assay IC50 [1],"Whole blood IFNγ assay, Bioactivity relative to TL1A-0002 [1]",Bioactivity relative to TL1A-0002 [2],IC50 [2],Bioactivity relative to TL1A-0002 [3],IC50 [3],TF-1 NF-κB reporter cell bioassay IC50 [1],"TF-1 NF-κB reporter cell bioassay, Bioactivity relative to TL1A-0002 [1]"
"TL1A-0289 (antibody, human IgG1, kappa, V domains shown, human IgG1 effector-function-minimized/kappa) VH: QVQLVQSGAEVKKPGASVKVSCKASGYDFTYYGVSWVRQAPGQGLEWMGWISTYNTGTHYAPSLQGRVTMTTDTSTSTAYMELRSLRSDDTAVYYCARESYYGSGAHRGGMDVWGQGTTVTVSS VL: DIQMTQSPSSLSASVGDRVTITCRASQSVSSYLAWYQQKPGKAPKLLIYDASNRATGVPSRFSGSGSGTDFTLTISSLQPEDFATYYCQQRSNWPWTFGQGTKVEIKR",0.799 nM,1 fold,1.6 fold,7.9 nM,–,–,–,–
"TL1A-0291 (antibody, human IgG1, kappa, V domains shown, human IgG1 effector-function-minimized/kappa) VH: QVQLVQSGAEVKKPGASVKVSCKASGYDFTYYGVSWVRQAPGQGLEWMGWISTYNTGTHYAQKLQGRVTMTTDTSTSTAYMELRSLRSDDTAVYYCARESYYGSGAHRGGMDVWGQGTTVTVSS VL: DIQMTQSPSSLSASVGDRVTITCRASQSVSSYLAWYQQKPGKAPKLLIYDASNRATGVPSRFSGSGSGTDFTLTISSLQPEDFATYYCQQRSNWPWTFGQGTKVEIKR",0.929 nM,1.1 fold,1.8 fold,9 nM,–,–,–,–
"TL1A-0048 (antibody, human IgG1, kappa, V domains shown, IgG1/kappa; VH graft on IGHV1-2*02) VH: QVQLVQSGAEVKKPGASVKVSCKASGYDFTYYGISWVRQAPGQGLEWMGWISTYNGNTHYARMLQGRVTMTRDTSISTAYMELSRLRSDDTAVYYCARENYYGSGAYRGGMDVWGQGTTVTVSS VL: EIVLTQSPATLSLSPGERATLSCRASQSVSSYLAWYQQKPGQAPRLLIYDASNRATGIPARFSGSGSGTDFTLTISSLEPEDFAVYYCQQRSNWPWTFGQGTKVEIKR",–,–,–,–,0.9 fold,4.1 nM,–,–
"TL1A-0053 (antibody, human IgG1, kappa, V domains shown, IgG1/kappa; IGHV1-46*01 / IGKV3D-7*01 grafts) VH: QVQLVQSGAEVKKPGASVKVSCKASGYDFTYYGISWVRQAPGQGLEWMGWISTYNGNTHYARMLQGRVTMTRDTSTSTVYMELSSLRSEDTAVYYCARENYYGSGAYRGGMDVWGQGTTVTVSS VL: EIVMTQSPATLSLSPGERATLSCRASQSVSSYLAWYQQKPGQAPRLLIYDASNRATGIPARFSGSGSGTDFTLTISSLQPEDFAVYYCQQRSNWPWTFGQGTKVEIKR",–,–,–,–,1 fold,4.5 nM,–,–
"TL1A-0308 (antibody, human IgG1, kappa, V domains shown, human IgG1 effector-function-minimized/kappa) VH: QVQLVQSGAEVKKPGASVKVSCKASGYDFTYYGIGWVRQAPGQGLEWMGWISTYNTNTHYAPSLQGRVTMTTDTSTSTAYMELRSLRSDDTAVYYCARESYYGSGAFRGGMDVWGQGTTVTVSS VL: DIQMTQSPSSLSASVGDRVTITCRASQSVSSYLAWYQQKPGKAPKLLIYDASNRATGVPSRFSGSGSGTDFTLTISSLQPEDFATYYCQQRSNWPWTFGQGTKVEIKR",0.81 nM,1 fold,2.8 fold,14.2 nM,–,–,43 nM,1.2 fold
"TL1A-0045 (antibody, human IgG1, kappa, V domains shown, IgG1/kappa; VH graft on IGHV1-46*01) VH: QVQLVQSGAEVKKPGASVKVSCKASGYDFTYYGISWVRQAPGQGLEWMGWISTYNGNTHYARMLQGRVTMTRDTSTSTVYMELSSLRSEDTAVYYCARENYYGSGAYRGGMDVWGQGTTVTVSS VL: EIVLTQSPATLSLSPGERATLSCRASQSVSSYLAWYQQKPGQAPRLLIYDASNRATGIPARFSGSGSGTDFTLTISSLEPEDFAVYYCQQRSNWPWTFGQGTKVEIKR",–,–,–,–,1.2 fold,5.5 nM,–,–
"TL1A-0043 (antibody, human IgG1, kappa, V domains shown, IgG1/kappa; VL graft on IGKV3D-7*01) VH: QVQLVQSGAEVKKPGASVKVSCKASGYDFTYYGISWVRQAPGQGLEWMGWISTYNGNTHYARMLQGRVTMTTDTSTRTAYMELRSLRSDDTAVYYCARENYYGSGAYRGGMDVWGQGTTVTVSS VL: EIVMTQSPATLSLSPGERATLSCRASQSVSSYLAWYQQKPGQAPRLLIYDASNRATGIPARFSGSGSGTDFTLTISSLQPEDFAVYYCQQRSNWPWTFGQGTKVEIKR",–,–,–,–,0.9 fold,3.9 nM,–,–
"TL1A-0049 (antibody, human IgG1, kappa, V domains shown, IgG1/kappa; IGHV1-46*01 / IGKV1-39*01 grafts) VH: QVQLVQSGAEVKKPGASVKVSCKASGYDFTYYGISWVRQAPGQGLEWMGWISTYNGNTHYARMLQGRVTMTRDTSTSTVYMELSSLRSEDTAVYYCARENYYGSGAYRGGMDVWGQGTTVTVSS VL: DIQMTQSPSSLSASVGDRVTITCRASQSVSSYLAWYQQKPGKAPKLLIYDASNRATGVPSRFSGSGSGTDFTLTISSLQPEDFATYYCQQRSNWPWTFGQGTKVEIKR",–,–,–,–,1.1 fold,4.9 nM,–,–
"TL1A-0042 (antibody, human IgG1, kappa, V domains shown, TL1A-0002 heavy chain with light chain CDRs grafted on IGKV1-39*01 (DPK9)) VH: QVQLVQSGAEVKKPGASVKVSCKASGYDFTYYGISWVRQAPGQGLEWMGWISTYNGNTHYARMLQGRVTMTTDTSTRTAYMELRSLRSDDTAVYYCARENYYGSGAYRGGMDVWGQGTTVTVSS VL: DIQMTQSPSSLSASVGDRVTITCRASQSVSSYLAWYQQKPGKAPKLLIYDASNRATGVPSRFSGSGSGTDFTLTISSLQPEDFATYYCQQRSNWPWTFGQGTKVEIKR",–,–,–,–,0.9 fold,4.2 nM,–,–
"TL1A-0294 (antibody, human IgG1, kappa, V domains shown, human IgG1 effector-function-minimized/kappa) VH: QVQLVQSGAEVKKPGASVKVSCKASGYDFTYYGVSWVRQAPGQGLEWMGWISTYNTNTHYAPSLQGRVTMTTDTSTSTAYMELRSLRSDDTAVYYCARESYYGSGAFRGGMDVWGQGTTVTVSS VL: DIQMTQSPSSLSASVGDRVTITCRASQSVSSYLAWYQQKPGKAPKLLIYDASNRATGVPSRFSGSGSGTDFTLTISSLQPEDFATYYCQQRSNWPWTFGQGTKVEIKR",0.942 nM,1.1 fold,1.6 fold,8 nM,–,–,56.5 nM,1.6 fold
"TL1A-0303 (antibody, human IgG1, kappa, V domains shown, human IgG1 effector-function-minimized/kappa) VH: QVQLVQSGAEVKKPGASVKVSCKASGYDFTYYGIGWVRQAPGQGLEWMGWISTYNTGTHYAPSLQGRVTMTTDTSTSTAYMELRSLRSDDTAVYYCARESYYGSGAHRGGMDVWGQGTTVTVSS VL: DIQMTQSPSSLSASVGDRVTITCRASQSVSSYLAWYQQKPGKAPKLLIYDASNRATGVPSRFSGSGSGTDFTLTISSLQPEDFATYYCQQRSNWPWTFGQGTKVEIKR",1.23 nM,1.5 fold,3 fold,15 nM,–,–,49.4 nM,1.4 fold
"TL1A-0293 (antibody, human IgG1, kappa, V domains shown, human IgG1 effector-function-minimized/kappa) VH: QVQLVQSGAEVKKPGASVKVSCKASGYDFTYYGVSWVRQAPGQGLEWMGWISTYNTVTHYAPSLQGRVTMTTDTSTSTAYMELRSLRSDDTAVYYCARESYYGSGAHRGGMDVWGQGTTVTVSS VL: DIQMTQSPSSLSASVGDRVTITCRASQSVSSYLAWYQQKPGKAPKLLIYDASNRATGVPSRFSGSGSGTDFTLTISSLQPEDFATYYCQQRSNWPWTFGQGTKVEIKR",0.986 nM,1.2 fold,1.9 fold,9.7 nM,–,–,–,–
"TL1A-0056 (antibody, human IgG1, kappa, V domains shown, IgG1/kappa; IGHV1-2*02 / IGKV3D-7*01 grafts) VH: QVQLVQSGAEVKKPGASVKVSCKASGYDFTYYGISWVRQAPGQGLEWMGWISTYNGNTHYARMLQGRVTMTRDTSISTAYMELSRLRSDDTAVYYCARENYYGSGAYRGGMDVWGQGTTVTVSS VL: EIVMTQSPATLSLSPGERATLSCRASQSVSSYLAWYQQKPGQAPRLLIYDASNRATGIPARFSGSGSGTDFTLTISSLQPEDFAVYYCQQRSNWPWTFGQGTKVEIKR",–,–,–,–,0.8 fold,3.8 nM,–,–
"TL1A-0292 (antibody, human IgG1, kappa, V domains shown, human IgG1 effector-function-minimized/kappa) VH: QVQLVQSGAEVKKPGASVKVSCKASGYDFTYYGVSWVRQAPGQGLEWMGWISTYNTVTHYAPSLQGRVTMTTDTSTSTAYMELRSLRSDDTAVYYCARESYYGSGAFRGGMDVWGQGTTVTVSS VL: DIQMTQSPSSLSASVGDRVTITCRASQSVSSYLAWYQQKPGKAPKLLIYDASNRATGVPSRFSGSGSGTDFTLTISSLQPEDFATYYCQQRSNWPWTFGQGTKVEIKR",0.95 nM,1.1 fold,1.9 fold,9.6 nM,–,–,77.9 nM,2.2 fold
